Results taken from article PMC2816692, “Structural and Biochemical Characterization of SrcA, a Multi-Cargo Type III Secretion Chaperone in Salmonella Required for Pathogenic Association with a Host” (PLoS Pathogens, 2010).

Target: the molecule itself
Assay: SEC; SrcA alone, 200 µl at 1.1 mg/ml; Superdex S200 10/300GL; 20 mM Tris pH 7.5, 200 mM KCl

B1: His-tagged SrcA (SsrB-regulated chaperone A, STM2138) (natural protein)
chain: MYSRADRLLRQFSLKLNTDSIVFDENRLCSFIIDNRYRILLTSTNSEYIMIYGFCGKPPDNNNLAFEFLNANLWFAENNGPHLCYDNNSQSLLLALNFSLNESSVEKLECEIEVVIRSMENLYHILQDKGITLDTDYT
notes: SrcA (STM2138), type III secretion chaperone of Salmonella enterica serovar Typhimurium; the srcA gene was amplified from chromosomal DNA; STM numbers count on the LT2 genome; Dimer by crystal structure and gel filtration; source: E. coli Rosetta (DE3), purified (nickel-chelating resin, Mono-Q anion exchange); not shown: His6, C-terminal, kept
stoichiometry N: 2
